Results published in patent publication US8758746B2, “Fertilization modulation compounds and process for implementing them” (Universite Joseph Fourier, priority 2009, dated 2014).
“And” between values parts separate entries of the source, which are not always exact repeats. Equal entries are not always repeated. “Also recorded” adds a separate entry of the source.

Key:
spermatozoa = details: inhibitors of PLA2; Roldan and Fragio 1993; Llanos et al 1993; cited from earlier work
sperm and oocytes [1] = experiment: In vitro fertilization (IVF), two-cell embryos scored at 24 h; type: cell-based, mouse; details: for comparison with mGX sPLA2 effect (FIG. 7): around 10 μM, 45 min during capacitation or 4 h after gamete mixing
[2] = tested on: Sperm cells from caudae epididymes; experiment: Acrosome reaction assay (coomassie blue staining); type: cell-based, mouse; details: for ability to trigger acrosome reaction (AR) / AR induced above basal spontaneous level of AR: uncapacitated sperm; for ability to trigger acrosome reaction (AR): incubated 10 min with sPLA2 (200 nM in FIG. 2A; pro-mGX at 200 nM)
Method: Sperm cells from caudae epididymes were allowed to swim in M2 medium for 10 min. Then, sperms were incubated, if necessary, with different sPLA2 in M16 medium at 37° C. for 10 min. Cells were transferred in PBS solution and then fixed with 4% PFA solution for 2 min. Sperm was washed with 100 mM ammonium acetate for 2 min and wet-mounted on slides and allowed to air dry. Slides were then rinsed with water and stained with coomassie blue (0.22%) for 2 min and finally rinsed with water. Slides were counted immediately and 150 sperm cells were scored at least.
The rate of AR increase from 20%, corresponding to spontaneous acrosome-reacted sperm, to 60% in the presence of 200 nM active sPLA2. In order to better characterize the potency of such compounds to trigger AR, dose-response curves for mGX and mGIIA were realized (FIG. 2B).
Sperm were capacitated with 2% BSA in M16 medium, in a 5% CO2 incubator at 37° C. At 45 and 80 min, 200 nM of mGX was introduced in the capacitation medium and sperm were fixed 10 min later. The rates of acrosome-reacted sperm observed in the presence of sPLA2 were compared with control sperm capacitated during 55 or 90 min in the capacitation medium (FIG. 2C). […] Moreover, the difference between spontaneous AR and total rate, corresponding to the sPLA2-induced fraction, was around stable throughout the capacitation progress: ≈39%, ≈36% and ≈35% at 10, 55 and 90 min respectively. It is important to notice that a small fraction of sperm of around 20% was reluctant to spontaneous AR or sPLA2-induced AR even in the presence of a high level of spontaneous AR.

Sperm cells = experiment: Electron microscopy of sPLA2-induced acrosome reaction; type: cell-based, mouse; details: uncapacitated sperm
Method: Sperm cells were fixed with 2.5% glutaraldehyde in 0.1 M cacodylate buffer pH 7.4 during 2 hours at room temperature. Cells were then washed with buffer and post fixed with 1% Osmium tetroxyde in the same buffer during 1 hour at 4° C. After extensive washing with water cells were then stained with 0.5% uranile acetate pH 4 overnight at 4° C. Cells were then dehydrated through graded alcohol (30%-60%-90%-100%-100%-100%) and infiltrate with a mix of 1/1 epon/alcohol 100% during 1 hour before several bath of fresh epon (Flukka) during 3 hours. Finally, cells were centrifugated and immersed in fresh Epon and polymerised during 3 days at 60° C. Ultrathin sections of the cell pellet were cut with an ultramicrotome (Leica). Sections were post-stained with 4% uranile acetate and 1% lead citrate before being observed in an electron microscope at 80 kV (JEOL 1200EX).
It was important to check with electron microscopy (EM) that sPLA2 induced a morphologically normal acrosome reaction. The morphological criteria by which an acrosome reaction is evaluated to be normal are relatively limited: first, the outer acrosomal membrane should present vesiculation, second, the plasma membrane should fuse with the outer acrosomal membrane and present a characteristic double hair pin shape at the base of the acrosome (Green, D. P. (1978) The induction of the acrosome reaction in guinea-pig sperm by the divalent metal cation ionophore A23187. J. Cell Sci., 32:137-51.:137-151.)
For these experiments, uncapacitated sperm was used in order to reduce the contribution of spontaneous AR and 200 nM sPLA2 to get maximum sPLA2-induced AR. Sperm were incubated 10 min with mGX sPLA2 or the calcium ionophore A23187 and then fixed. In the presence of A23187, all acrosome-reacted sperm presented complete AR, with the 3 morphological criteria, as described above.

sperm and oocytes [3] = experiment: In vitro fertilization (IVF), two-cell embryos scored at 24 h; type: cell-based, mouse; details: for rate of IVF (effect in words): OF1 sperm treated 10 min with 20 or 200 nM mGX
Method: Sperm cells, obtained by manual trituration of caudae epididymes from OF1 male mice, were allowed to swim in M2 medium for 10 min. Then, the sperm cells were transferred in M16 medium containing 2% BSA (Bovine Serum Albumen) and incubated 35 min for capacitation. After centrifugation, cells were then transferred in M16 medium and if necessary, incubated with 20 or 200 nM of mGX sPLA2 for 10 min. Sperm cells were centrifugated (1200 rpm, 5 min) and re-suspended in M16 medium to remove […] sPLA2 before to be used for in vitro fertilization experiment. All experiments were carried out at 37° C. Eggs were collected from mature OF1 females (6-weeks old) synchronized with 7.5 units of PMSG (pregnant mare serum gonadotrophin) and 7.5 units of hCG (human chorionic gonadotrophin) before collection.
IVF using standard protocols were carried out. Eggs were incubated with approximately 10^4 sperm cells, and unbound sperms were washed away after 4 hours of incubation. Twenty four hours after fertilization, the two-cell embryos stages (FIG. 4) were scored as an indication of successful fertilization (FIGS. 5 and 6).
In vitro fertilizations (IVF) were realized with sperm capacitated 35 min in 2% BSA and then treated 10 min with 20 or 200 nM mGX. Before treated sperm were introduced within oocytes, sperm were washed and centrifuged to remove sPLA2 in order to avoid artefact effects of sPLA2 on sperm-oocyte fusion (Riffo and Parraga, 1997). sPLA2 contaminant in the IVF medium was below 1 nM for sperm treated at 200 nM.

Molecule: O=C(CBr)c1ccc(Br)cc1 [4-bromophenacyl bromide]
- effect on calcium-ionophore induced acrosome reaction (spermatozoa): block

Molecule: CCCCC/C=C\C/C=C\C/C=C\C/C=C\CCCC(=O)O [arachidonic acid]
- comparison with mGX sPLA2 effect (FIG. 7) (sperm and oocytes [1]): mimic mGX sPLA2

Molecule: CCN(CC)CCCC(C)Nc1c2ccc(Cl)cc2nc2ccc(OC)cc12 (centres unmarked) [mepacrine]
- effect on calcium-ionophore induced acrosome reaction (spermatozoa): block

Molecule: Lysophosphocholine [LPC]
- rescue of fertilization decreased by LY329722 (sperm and oocytes [1]; LPC 1 μM during capacitation with LY329722 2 μM (FIG. 8)): rescued
- comparison with mGX sPLA2 effect (FIG. 7) (sperm and oocytes [1]): mimic mGX sPLA2

B1: mGV: Recombinant mouse group V secreted phospholipase A2 (protein, UniProt P97391 21-137, looked up)
Phospholipase A2 group V: GLLELKSMIEKVTGKNAFKNYGFYGCYCGWGGRGTPKDGTDWCCQMHDRCYGQLEEKDCAIRTQSYDYRYTNGLVICEHDSFCPMRLCACDRKLVYCLRRNLWTYNPLYQYYPNFLC
- ability to trigger acrosome reaction (AR) [2]: trigger acrosome reaction

B2: pro-mGX: the inactive pro-enzyme (precursor molecule) of mGX (protein, UniProt Q9QXX3 18-151, looked up)
pro-form: EATRRSHVYKRGLLELAGTLDCVGPRSPMAYMNYGCYCGLGGHGEPRDAIDWCCYHHDCCYSRAQDAGCSPKLDRYPWKCMDHHILCGPAENKCQELLCRCDEELAYCLAGTEYHLKYLFFPSILCEKDSPKCN
modifications: pro-form
- ability to trigger acrosome reaction (AR) [2]: unable to trigger AR
- ability to trigger acrosome reaction (AR) ([2]; listed as Pro-mGX): unable to trigger sperm acrosome reaction

B3: mGIIA: Recombinant mouse group IIA secreted phospholipase A2 (protein, UniProt P31482 22-146, looked up)
Phospholipase A2, membrane …: NIAQFGEMIRLKTGKRAELSYAFYGCHCGLGGKGSPKDATDRCCVTHDCCYKSLEKSGCGTKLLKYKYSHQGGQITCSANQNSCQKRLCQCDKAAAECFARNKKTYSLKYQFYPNMFCKGKKPKC
- AR induced above basal spontaneous level of AR ([2]; 2 nM sPLA2): around 20%
- ability to trigger acrosome reaction (AR) [2]: trigger acrosome reaction; also recorded: able to trigger AR

B4: mGX: Recombinant mouse group X secreted phospholipase A2 (protein, UniProt Q9QXX3 29-151, looked up)
Group 10 secretory …: GLLELAGTLDCVGPRSPMAYMNYGCYCGLGGHGEPRDAIDWCCYHHDCCYSRAQDAGCSPKLDRYPWKCMDHHILCGPAENKCQELLCRCDEELAYCLAGTEYHLKYLFFPSILCEKDSPKCN
- ability of mGX to trigger AR with 2 mM Ni2+ ([2]; 200 nM mGX, 2 mM Ni2+ in the bath, n=3): block
- sPLA2-induced fraction (difference between total rate and spontaneous AR) ([2]; 200 nM mGX, 10 min (non-capacitated sperm)): ≈ 39%
- ability of mGX to trigger AR without external calcium ([2]; 200 nM mGX, 10 min, external calcium removed, n=3): block
- sPLA2-induced fraction (difference between total rate and spontaneous AR) ([2]; 200 nM mGX, 55 min of capacitation in 2% BSA): ≈ 36%
- sPLA2-induced fraction (difference between total rate and spontaneous AR) ([2]; 200 nM mGX, 90 min of capacitation in 2% BSA): ≈ 35%
- very low dose from which AR is triggered ([2]; capacitated and uncapacitated sperm, in the absence of oocytes): 0.2 nM
- total rate of acrosome-reacted sperm versus control ([2]; capacitated sperm (2% BSA, 55 or 90 min), 200 nM mGX for the last 10 min): able to trigger acrosome reaction; also recorded: increased at all capacitation durations
- AR induced above basal spontaneous level of AR ([2]; 0.2 nM sPLA2): 15%
- AR induced above basal spontaneous level of AR ([2]; 0.2 nM sPLA2, listed as mGX sPLA2): around 20%
- ability to trigger acrosome reaction (AR) [2]: trigger acrosome reaction; also recorded: able to trigger AR
- kinetic of induced AR compared with A23187 (Sperm cells; 200 nM, 10 min): slower
- morphology of induced acrosome reaction (electron microscopy) (Sperm cells; incubated 10 min (200 nM sPLA2)): normal morphological feature
- rate of IVF (effect in words) (sperm and oocytes [3]): promotes fertilization
- rate of IVF (effect in words) (sperm and oocytes [3]; listed as mGX sPLA2): increased
- fertilization outcome (2 cell embryo at 24 h post fertilization) (sperm and oocytes [3]; sPLA2 at 200 nM (FIG. 7)): improve fertilization outcome
- rate of two cells embryos stage at 24 hours (IVF rate) (sperm and oocytes [3]; sperm from OF1 males treated 10 min with 200 nM mGX, control 45% (44.0±8.9%)): 65% and 65.4 ± 5.6%
- increase of fertilization rate versus non-treated sperm (sperm and oocytes [1]; C57Bl/6 strain, mGX treated sperm (200 nM)): 142%
- control IVF with sPLA2 present during sperm-oocyte incubation (sperm and oocytes [1]; sperm and oocytes incubated with 1 nM mGX): no difference was noticed
- rate of two-cells embryos stage at 24 hours (sperm and oocytes [1]; sperm from C57Bl/6 males treated with 200 nM mGX, control 8.2%): 19.9%
